1 substance from PMC7007526 can be followed below.

The test concerns the target CPn0678–GFP (Chlamydia pneumoniae). The test is described as follows: FRET or BRET.

Consider “mCherry–SNX9 (from UniProt Q9Y5X1 1-595) (natural protein)”, for which the average donor fluorescence lifetime with the acceptor (FLIM-FRET) was found to be 2.6 ns and the reduction of donor fluorescence lifetime (FLIM-FRET) stood at 256 ps.
